Key:
[1] = molecular target: PagRBc, PagR homologue (ArsR/SmtB family transcription factor) of emetic B. cereus F4810/72, encoded on pCER270 (Bacillus cereus F4810/72 (emetic reference strain)); assay: two-hybrid
[2] = tested on: PagRBa (PagR) (Bacillus anthracis Sterne, plasmid pXO1); assay: EMSA
[3] = tested on: PagRBc (Bacillus cereus F4810/72 (AH187), plasmid pCER270); assay: EMSA
[4] = tested on: PagR1Bc (Bacillus cereus F4810/72 (AH187), plasmid pCER270); assay: EMSA

Substance	fold of self-interaction (β-galactosidase activity) against the self-interaction of PagR1Bc [1] [fold]	Kd [2] [nM]	Kd [3] [nM]	Kd [4] [nM]
PagRBc, PagR homologue (ArsR/SmtB family transcription factor) of emetic B. cereus F4810/72, encoded on pCER270 (natural protein)	1.75			
cesP main promoter (cesPII), 523 bp		25	25	150
